This test addresses Int^C-eGFP-H6 with the C124A and N146A mutations (construct 9), inactivated C-terminal precursor of the AceL NrdHF split intein (not stated (metagenomic contig from the Antarctic Ace Lake, might originate from a bacteriophage)). Nature of the test: MST; Monolith NT.115; 9 at 8.8 nM (eGFP as fluorophore), 1 in a dilution series from 2500 to 0.61 nM; BSA 0.05 % (w/v) and Tween-20 0.1 % (v/v) added; 20 % MST power, 20 % blue LED; four parametric sigmoidal fit.

This passage reports Kd results from PMC7891396.

For orientation: Kd means the free concentration of one partner at which half of the binding sites on the other are occupied at equilibrium, for simple one-to-one binding. Higher therefore signals a looser complex.

In turn, “MBP-Int^N-H6 (1), N-terminal precursor of the AceL NrdHF split intein (domain or fragment)” showed a dissociation constant Kd of 0.0822 µM.
